# B1: TPR t1 (parent)
# chain: GACCAAUCUGCCCUCAGAGCUCGAGAACAUCUUCGGAUGCAGAGGAGGCAGGCUUCGGUGGCGCGAUAGCGCCAACGUCCUCAACCUCCAAUGCAUCCCACCACAUGAUGAUGCCUGAAGAGCCUUGGUUUUUUG
# Variants of: B1
# Experiment: polymerase ribozyme fitness, log enrichment relative to wild type (log ratio); higher = more active; in vitro selection for triplet polymerase activity
# Summary of the method: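 Mutant libraries of both subunits of a heterodimeric triplet polymerase ribozyme were PCR-built, transcribed, and selected once in triplicate, with frozen incubation at −7 °C and capture of gel-excised extended constructs on streptavidin beads before RT-PCR. Illumina sequencing of input and output libraries was filtered to genotypes with ≥10 input reads and ≥1 read per output. Fitness is the logarithm of genotype enrichment over wild-type enrichment, using inverse-variance-weighted replicate averages. The logarithm is base 2.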
row,Variant,polymerase ribozyme fitness (log ratio)
1,C72U C76A C98U,-1.75
2,A5U A6C C11U,-0.244
3,C22U C40G G63A A74U A75U,-5.63
4,C72U U81G,-3.35
5,C72G U125A U133C,-0.433
6,C11U G60A U78C A95U U112A U116G,-3.18
7,G71A U96G,-1.35
8,C4U A6C G48U G69U C86U C88A G113C,-3.07
9,A43U G69C C115A C124U,-3.09
10,G63C U96A,-2.05
11,C20A C72G A95U G113C,-6.92
12,G60A U78A C123U,0.832
13,A37C C53G C62A,-1.57
14,C13G G39A G113U C114A,-4.57
15,C123U U126A G135U,0.771
16,G61U C80A C101A,-4.47
17,C56U U81G U112G C124G,-0.448
18,C53U G71U U92A A119U C124U,-2.62
19,U54G C72U C97U,-0.381
20,U21A G60A C86U,-1.23
21,A41U G128A,-2.79
22,C22A G60C U87A,-5.83
23,A50U C62U U133G,-1.1
24,C8G C13G G36A U78A A111C,0.328

row,Variant,polymerase ribozyme fitness (log ratio)
1,A43U U55A C70G U112A G113A,-3.91
2,G19A G61A,-2.53
3,C28G U54C A68G G110U,-3.67
4,C70G A111U G117U A121U,-6.12
5,G60A A83C C101G G128C,-4.75
6,G47C G52C C73U G120U C123A,-2.99
7,C49G G120C,1.11
8,C62A U106G A121G,-0.77
9,C11A C94U,-1.19
10,U7G G63A,0.0919
11,A46U U112A C123A,-1.26
12,U96C U112A A121U,1.86
13,G47C U81G G93A C101U,-5.71
14,A5G G10A C72U A91U,-2.06
15,C56A G77C C98U G128A,-3.89
16,A27U G71C,-4.45
17,G51C G127U,-5.2
18,A50G C62A,-0.949
19,C98U U106A G110U G120C,-2.16
20,C11G A111U,-2.19
21,G52A C102A,-1.79
22,A121G U131G,1.36
23,C13A C124A,0.0418
24,U9A G52A G65C U126C,-5.92

row,Variant,polymerase ribozyme fitness (log ratio)
1,C13A G69U,-1.23
2,C4G C72A C85G C104U,-2.16
3,U14C C49U U130A,-2.74
4,G10A G61U C86U U92C G93A,-2.24
5,C13U U112C G135U,1.11
6,G65U C70U,-5.58
7,A24G A46U C72U U126G G128C,-4.57
8,C15G G39U C72A,-3.5
9,U78A G113C U130C,-3.05
10,C11A C70G C80U C97G C124A,-5.66
11,C8G C15G C70G C114U,-5.64
12,C64U C86A G122A U132A,-2.78
13,G10A C62U,0.124
14,A27C G61U G110A C123G,-3.8
15,A37U C40A C94U,-4.04
16,G42A G52C C62A,-4.83
17,C82G A95U A105G,-3.5
18,A16U C40A A100U,-3.86
19,G23A C56G C76U G110A G117A C124G,-7.16
20,G44C C53A C72U C88U A100U,-0.423
21,G19U A75G,-3.56
22,A74U A84U A91C C102G G113U C115G A118G G128U,-7.73
23,U9G G107U,-3.93
24,G63U G120A U129G,-2.16

row,Variant,polymerase ribozyme fitness (log ratio)
1,C3U C28U A41G A43U A46C U92C C94U C124U,-4.65
2,U81A C85U,-2.56
3,C8G C13G G17A G122A,-0.902
4,G113U G120C,-1.71
5,G42U C94G U96C,-4.23
6,C12U C20U A43U C62U U96C U106A U129A,-6.14
7,C3A C20U U38A G61A C82A G110A G127A,-6.34
8,C4G C8G A50U G113C C115U,-5.07
9,G77A U109C,-3
10,C72G C86A,-0.939
11,C72G C86G,-2.24
12,G110A C115G,-5.71
13,A2G C53A G60A A105C,-4.11
14,G19U C72A,-3.06
15,C99A G110A,-5.17
16,A43C G63A U78C C88A A91G C94U U130C,-4.78
17,G63A U109G,-4.41
18,A26C G61C U112G,-5.78
19,U14A U33G A37U G42U G61C U109A,-6.69
20,A26G G61U,-1.54
21,C15G C70U A84G,-5.53
22,G44U C64U,-1.48
23,C56G G77C G127C U129G,-0.438
24,G48U C53G C62U C73A U132A,-0.636

row,Variant,polymerase ribozyme fitness (log ratio)
1,C79U A90C G93A,-2.09
2,U38G G42U G120C U126G G128U,-3.39
3,A84G C102A,-3.38
4,U9G G113U,-1.66
5,U21A C70A,-3.21
6,A6G A95C,-1.16
7,C102U C123U,-0.21
8,C99U G128U,-5.25
9,G36A G61U U87C C123G,0.936
10,A41G C49G U55A A111C,-1.63
11,A29U C31G C97G U112A U129G,-6.42
12,G51U G120C,-2.42
13,A6U C12U,-0.0768
14,C62U C85G U87C,-2.53
15,C8G A26G G57U A119G U130G,-0.722
16,G48C G110C U116G A119G C123A,-5.26
17,G44A G69U C104A,-1.28
18,C40U G69A C99A C114G,-8.02
19,C20U G48U G57U G60A,-2.57
20,G71C,-1.04
21,C12G A16U U55C U78C A108G C123U,-3.68
22,G25A U33A G61A G77U C115A,-6.46
23,A18G G61C C114U,-5.18
24,G10U C22G G60C C88A,-4.88

row,Variant,polymerase ribozyme fitness (log ratio)
1,C82G U129G,-1.36
2,G35U U67G U109A C115U,-7.12
3,C8A A26U C89G C94U C124G U125G G127U,-3.87
4,A16C G61C G69U U81A G120C,-3.32
5,G48A A84C,-0.643
6,G48U G135C,-1.03
7,A6U A46U C72A U96A G120A G128A,-2.92
8,A16G U21C G48A A100C C123A,-4.34
9,C76G A91U U132A,-1.52
10,U14A G60C C97G C123A,-5.56
11,C11U A108G A118U,-3.04
12,A90C C101G,-3.07
13,C12G G69C C82U C98U A119G,-0.598
14,G10U C85U,-0.736
15,C8U C70U C79G C94G,-3.8
16,C73G C82A,-1.99
17,C88G U116G,-3.52
18,C80U C101U,-0.367
19,C11U A27U C62U C88G C97G C98U C99U C114G C124A G128A,-7.25
20,G42A A46G G120U,-2.64
21,G60A C79A G110A,-3.84
22,C11A C12G C73A C104U G120A,-1.09
23,C56G G107U,-5.02
24,C15U U21C G110A U130G,-4.32

row,Variant,polymerase ribozyme fitness (log ratio)
1,C8G U81A,0.387
2,C8G U81C,0.586
3,G52U U55C C79U,-0.237
4,G69A C82U,-2.48
5,C8G C53A G117A,0.922
6,U7C A46G A108G C123A,-1.51
7,G36C C88U C89A,-3.3
8,C64U C76U C89U U96A,-3.47
9,C13A C82G,-1.93
10,C89A C101A,-2.25
11,C15A G71A,-2.63
12,C28U C70G,-4.94
13,C40U A74G C79G,-2.36
14,C22G A24U U30C A46G G48U G60C G110U,-6.93
15,A2U G61U G113C C114U,-3.06
16,U81A C97U,-1.89
17,A27U C40U C76G,-4.54
18,G61C C72A C101A G120U C123A,-0.675
19,A90G C99U U106C,-2.51
20,G58C C62U,-1.01
21,U9C A50U G52C,-2.28
22,A18C G77C,-2.76
23,U21A U81A,-1.49

# Source: the RNAGym collection of RNA variant scans (doi:10.1073/pnas.2313332121)
